Results on two substances are retold here after US20140079706A1.

Holding throughout (experiment): cell-based or functional assay
The target in assay [1] is CSF-1R on cynomolgous monocytes (cynomolgous).
Assay [2] concerns the target human mutant CSF-1R L301S Y969F, full-length, on NIH 3T3 cells (human) (UniProt P07333).
Assay [3] has as its target human wildtype CSF-1R (wt CSF-1R), full-length, on cells (human) (UniProt P07333).

On to “Anti CSF-1R SC 2-4A5 (Santa Cruz Biotechnology, US) (antibody)”, for which, in assay [1], the % inhibition (of survival) = (100% - % survival), cynomolgous monocytes, 5 µg/ml antibody stood at 69% and the % survival of cynomolgous monocytes at 5 µg/ml antibody (150 ng/ml huCSF-1, CellTiterGlo) was determined as 31%. In addition, in assay [2], the Mutant CSF-1R IC30 (cell viability, CellTiterGlo, 3D spheroids) came out at 2.56 mg/L and the Mutant CSF-1R IC50 (cell viability, CellTiterGlo, 3D spheroids) is 10 mg/L. For the same substance, in assay [3], the wtCSF-1R IC30 (cell viability, CellTiterGlo, 3D spheroids) was 16.6 mg/L and the wtCSF-1R IC50 (cell viability, CellTiterGlo, 3D spheroids) worked out at 10 mg/L.
In assay [2], “goat polyclonal anti-CSF-1R antibody ab10676 (abcam)” gave a % inhibition at 20 µg/ml, mutant CSF-1R cells of 0% and a Mutant CSF-1R IC30 (cell viability, CellTiterGlo, 3D spheroids) of more than 20 mg/L. This substance also registered a wtCSF-1R IC30 (cell viability, CellTiterGlo, 3D spheroids) in assay [3] of 14.2 mg/L.
